Target: T1, human Regnase-1 of Example 15 (full length, GST tag cleaved off, BirA recognition sequence on the C-terminal side, biotinylated)
T1 sequence (Q5D1E8 1-599, looked up): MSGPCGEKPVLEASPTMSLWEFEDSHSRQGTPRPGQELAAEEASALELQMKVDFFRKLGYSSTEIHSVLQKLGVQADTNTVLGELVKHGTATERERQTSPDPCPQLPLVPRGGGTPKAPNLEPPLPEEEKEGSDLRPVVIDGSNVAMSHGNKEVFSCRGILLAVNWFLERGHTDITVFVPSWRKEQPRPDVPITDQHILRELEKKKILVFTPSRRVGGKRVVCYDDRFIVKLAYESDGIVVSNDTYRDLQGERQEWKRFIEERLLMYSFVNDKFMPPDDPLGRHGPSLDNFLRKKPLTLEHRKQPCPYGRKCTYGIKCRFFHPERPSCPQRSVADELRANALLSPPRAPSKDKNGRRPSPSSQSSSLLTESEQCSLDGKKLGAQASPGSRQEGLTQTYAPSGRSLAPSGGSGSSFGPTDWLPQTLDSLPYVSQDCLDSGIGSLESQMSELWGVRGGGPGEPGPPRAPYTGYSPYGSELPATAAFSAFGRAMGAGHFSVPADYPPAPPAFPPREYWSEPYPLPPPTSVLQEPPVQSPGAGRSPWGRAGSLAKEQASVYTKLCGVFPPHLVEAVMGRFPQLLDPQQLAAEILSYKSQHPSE

B1: IKKβ (manufactured by SignalChem) (protein)
chain: MSWSPSLTTQTCGAWEMKERLGTGGFGNVIRWHNQETGEQIAIKQCRQELSPRNRERWCLEIQIMRRLTHPNVVAARDVPEGMQNLAPNDLPLLAMEYCQGGDLRKYLNQFENCCGLREGAILTLLSDIASALRYLHENRIIHRDLKPENIVLQQGEQRLIHKIIDLGYAKELDQGSLCTSFVGTLQYLAPELLEQQKYTVTVDYWSFGTLAFECITGFRPFLPNWQPVQWHSKVRQKSEVDIVVSEDLNGTVKFSSSLPYPNNLNSVLAERLEKWLQLMLMWHPRQRGTDPTYGPNGCFKALDDILNLKLVHILNMVTGTIHTYPVTEDESLQSLKARIQQDTGIPEEDQELLQEAGLALIPDKPATQCISDGKLNEGHTLDMDLVFLFDNSKITYETQISPRPQPESVSCILQEPKRNLAFFQLRKVWGQVWHSIQTLKEDCNRLQQGQRAAMMNLLRNNSCLSKMKNSMASMSQQLKAKLDFFKTSIQIDLEKYSEQTEFGITSDKLLLAWREMEQAVELCGRENEVKLLVERMMALQTDIVDLQRSPMGRKQGGTLDDLEEQARELYRRLREKPRDQRTEGDSQEMVRLLLQAIQSFEKKVRVIYTQLSKTVVCKQKALELLPKVEEVVSLMNEDEKTVVRLQEKRQKELWNLLKIACSKVRGPVSGSPDSMNASRLSQPGQLMSQPSTASNSLPEPAKKSEELVAEAHNLCTLLENAIQDTVREQDQSFTALDWSWLQTEEEEHSCLEQAS
  phosphorylation detected by Western blotting: it was confirmed that human Regnase-1 is phosphorylated by IKKβ and TBK1

B2: TBK1 (manufactured by SignalChem) (protein)
chain: MQSTSNHLWLLSDILGQGATANVFRGRHKKTGDLFAIKVFNNISFLRPVDVQMREFEVLKKLNHKNIVKLFAIEEETTTRHKVLIMEFCPCGSLYTVLEEPSNAYGLPESEFLIVLRDVVGGMNHLRENGIVHRDIKPGNIMRVIGEDGQSVYKLTDFGAARELEDDEQFVSLYGTEEYLHPDMYERAVLRKDHQKKYGATVDLWSIGVTFYHAATGSLPFRPFEGPRRNKEVMYKIITGKPSGAISGVQKAENGPIDWSGDMPVSCSLSRGLQVLLTPVLANILEADQEKCWGFDQFFAETSDILHRMVIHVFSLQQMTAHKIYIHSYNTATIFHELVYKQTKIISSNQELIYEGRRLVLEPGRLAQHFPKTTEENPIFVVSREPLNTIGLIYEKISLPKVHPRYDLDGDASMAKAITGVVCYACRIASTLLLYQELMRKGIRWLIELIKDDYNETVHKKTEVVITLDFCIRNIEKTVKVYEKLMKINLEAAELGEISDIHTKLLRLSSSQGTIETSLQDIDSRLSPGGSLADAWAHQEGTHPKDRNVEKLQVLLNCMTEIYYQFKKDKAERRLAYNEEQIHKFDKQKLYYHATKAMTHFTDECVKKYEAFLNKSEEWIRKMLHLRKQLLSLTNQCFDIEEEVSKYQEYTNELQETLPQKMFTASSGIKHTMTPIYPSSNTLVEMTLGMKKLKEEMEGVVKELAENNHILERFGSLTMDGGLRNVDCL
  phosphorylation detected by Western blotting: it was confirmed that human Regnase-1 is phosphorylated by IKKβ and TBK1

Source: patent US20220125891
